Reference: US20230303694A1 (LAVA THERAPEUTICS N V, published 2023)
Values belong to the binder of their own block, whether it stands above or below them.

Columns and labels:
[1] = target: T1, epidermal growth factor receptor (EGFR) on EGFR-expressing tumor cell lines A-431, HCT-116 and HT-29 (human, UniProt P00533 25-1210); assay: cell-based or functional assay
[2] = target: human Vγ9Vδ2 T cell receptor (TCR) on primary Vγ9Vδ2 T cells (human), Q99603; assay: cell-based or functional assay
[3] = target: T1, epidermal growth factor receptor (EGFR) …; assay: cell-based ELISA on A-431 cells, anti-IgG1-HRP, signal at 450 nm
Experimental: To this end, tumor cells were first seeded at different concentrations on day −1 to reach a concentration of approximately 50000 cells/well on day 0. […] Bound antibodies were then labelled in a secondary incubation step with anti-IgG1-HRP for one hour at 37° C. The secondary antibody binding was then resolved by the addition of 3,3′,5,5′-Tetramethylbenzidine and the colorimetric change induced by the HRP, followed by the addition of H2SO4 to stop the reaction. The optical density (OD) was then measured in a UV spectrometer at a wavelength of 450 nm.

EC50 degranulation (CD107A+ Vγ9Vδ2 T cells, 4 h, with A431 cells) [2]: 0.011 nM
B1: bispecific VHH 7D12var8-5C8var1-Y105F (bispecific antibody)
chain: EVQLVESGGGSVQPGGSLRLSCAASGRTSRSYGMGWFRQAPGKEREFVSGISWRGDSTGYADSVKGRFTISRDNAKNTVDLQMNSLRAEDTAVYYCAAAAGSAWYGTLYEYDYWGQGTLVTVSSGGGGSEVQLLESGGGSVQPGGSLRLSCAASGRPFSNYAMSWFRQAPGKEREFVSAISWSGGSTSYADSVKGRFTISRDNSKNTLYLQMNSLRAEDTAVYYCAAQFSGADFGFGRLGIRGYEYDYWGQGTQVTVSS
EC50 cytotoxicity (A431 tumor cell kill, 24 h, with Vγ9Vδ2 T cells) [1]: 0.0025 nM

EC50 (read off the curve) [3]: ~2 nM
B2: 7D12var8-5C8var1(Y105F)-Fc (bispecific antibody, V domains shown)
V domain 1: EVQLVESGGGSVQPGGSLRLSCAASGRTSRSYGMGWFRQAPGKEREFVSGISWRGDSTGYADSVKGRFTISRDNAKNTVDLQMNSLRAEDTAVYYCAAAAGSAWYGTLYEYDYWGQGTLVTVSS
V domain 2: EVQLLESGGGSVQPGGSLRLSCAASGRPFSNYAMSWFRQAPGKEREFVSAISWSGGSTSYADSVKGRFTISRDNSKNTLYLQMNSLRAEDTAVYYCAAQFSGADFGFGRLGIRGYEYDYWGQGTQVTVSS
notes: Heterodimer of two VHH-Fc chains: the anti-EGFR 7D12var8-Fc (hole) and the anti-Vδ2 5C8var1(Y105F)-Fc (knob); The Fc is human IgG1 with L234F/L235E and a modified hinge; also called 7D12var8-5C8var1(Y105F) with Fc region
